In patent US20190177366A1 (published 2019) one finds IC50 data, which are given here for 4 molecules.

For assay [1], the target named is T1, proprotein convertase subtilisin/kexin type 9 (PCSK9) (human, UniProt Q8NBP7 31-152). Briefly: phage competition ELISA; competing phage pep2-8. A general note: An ELISA detects its analyte on a solid surface through an enzyme-linked reagent.
For assay [2], the target named is T1, proprotein convertase subtilisin/kexin …. In words: phage competition ELISA; competing phage K9gvpep4.
The target is the same in assay [3]. Briefly: competition.

Bridge positions count the residues as written; N and C are the ends. Ends that are not written are not given here.

T1 sequence (Q8NBP7 31-152, chain 1 of 2): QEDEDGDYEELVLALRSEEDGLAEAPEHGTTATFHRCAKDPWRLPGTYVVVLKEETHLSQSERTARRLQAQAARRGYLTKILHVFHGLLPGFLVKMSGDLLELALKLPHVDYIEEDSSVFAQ
T1 sequence (Q8NBP7 153-692, chain 2 of 2): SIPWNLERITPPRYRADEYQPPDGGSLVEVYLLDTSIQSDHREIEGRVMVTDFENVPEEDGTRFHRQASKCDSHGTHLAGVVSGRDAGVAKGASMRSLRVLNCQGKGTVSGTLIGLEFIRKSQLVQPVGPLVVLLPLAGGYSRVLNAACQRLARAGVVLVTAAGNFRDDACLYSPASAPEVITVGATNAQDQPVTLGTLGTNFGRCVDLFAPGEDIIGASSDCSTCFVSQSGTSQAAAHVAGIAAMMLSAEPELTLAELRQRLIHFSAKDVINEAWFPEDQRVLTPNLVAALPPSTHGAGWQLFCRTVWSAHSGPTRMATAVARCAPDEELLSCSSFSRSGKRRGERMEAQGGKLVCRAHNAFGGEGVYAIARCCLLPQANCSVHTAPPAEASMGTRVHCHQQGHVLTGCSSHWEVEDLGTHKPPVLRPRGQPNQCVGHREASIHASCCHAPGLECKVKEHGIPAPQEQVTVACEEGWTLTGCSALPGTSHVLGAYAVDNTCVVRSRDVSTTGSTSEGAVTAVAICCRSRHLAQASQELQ

Consider Ac-TVFTSWEEYLDWVGSGCRLPWNLQRIGLPC-NH2 (disulfide 17-30 (inferred)) [Compound 19], for which the half-maximal inhibitory concentration (IC50) in assay [1] turned out to be 6.19 nM; in assay [2], 3.44 nM.

For the molecule SGCRLPWNLQRIGLPC (not fully specified (bridges); cysteine pairing not given here) [K9gvpep4], the IC50 in assay [3] stood at 318 nM.

The molecule SGDLMPWNLVRIGLLR [K9gvpep7] showed an IC50 in assay [3] of 635 nM.

Turning to Ac-TVFTSWEEYLDWVGSGDLMPWNLVRIGLLR-NH2 [Compound 20], the IC50 worked out at 14.5 nM in assay [1] and 2.69 nM in assay [2].

Broadly, the IC50 is the concentration that inhibits the measured activity by half. Lower therefore signals inhibition by little substance.
